In US20070065439A1 (Amgen, published 2007):
Positions count from the first letter of the chain named.

B1: 8.18.1 (antibody, human IgG4, V domains shown)
VH: QVQLQESGPGLVKPSETLSLTCTVSGGSVSSGGYYWSWIRQPPGKGLEWIGYFYYSGSPNYNPSLKRRIAISVDTSKNQFSLRLSSVTAADTAVYYCARDPMHYYGMDVWGQGTTVTVSS
VL: SSELTQPPSVSVFPGQTANITCSGDKLGDKFACWYQQKPGQSPVLVIYRDNKRPSGIPERFSGSNSGNTATLTISGTQAMDEADYYCQAWDSSTYVVFGGGTKLTVL
notes: lambda; also called mAb 8.18.1
B2: 8.6.1 (antibody, human IgG4, V domains shown)
VH: B1 VH with I39V, Y52C, F53I, Y55F, G57E, P59T, R67S, I69V, A70T, R83K
VL: B1 VL with S2F, F13S, N19S, R49Q, N51T, F61I
notes: lambda; also called 8.6.3
B3: 4.20.1 (antibody, human IgG4, V domains shown)
VH: QVQLVESGGGVVQPGRSLRLSCAASGFTFSNYGMNWVRQAPGKGLEWVAVIWYDGNNKSEADSVKGRFTISRDNSKNTLYLQMNSLRAEDTAVYYCARDSRSGPFDYWGQGTLVTVSS
VL: EIVLTQSPDFQSVTPKEKVTITCRASQSIGSSLHWYQQKPDQSPKLLIKFASQSFSGVPSRISGSGSGTDFTLTINSLEAEDAATYYCHQSSSLPFTFGPGTKVDIK
notes: kappa; also called 4.20.2
B4: 5.36.1 (antibody, human IgG4, V domains shown)
VH: QVQLQQSGPGLVKPSQTLSLTCAISGDSVSSNSAAWNWIRQSPSRGLEWLGRTYYRSKWYNDYAVSVKSRITINPDTSKNQFSLQLNSVTPEDTAVYYCAREEQQLVRYYYYYGMDVWGQGTTVTVS
VL: DIVMTQTPLSLSVTPGQPASISCKSSQSLLHSDGRTYLYWYLQRPGQPPQLLIYEASYRFSGVPDRFSGSGSGTDFTLKISRVEAEDVGIYYCMQSIQLPRTFGQGTRLEIK
notes: kappa
B5: 6.26.1 (antibody, human IgG4, V domains shown)
VH: QLQLQESGPGLVKPSETLSLTCTVSGGSISRSSYYWGWIRQPPGKGLEWMGNIYYSGSTHYNPSLKSRVTISVDTSKNQFSLKLSSVTAADTAVFYCAKGREYISSSGYGMDVWGQGTTVTVS
VL: SYELTQPPSVSVSPGQTASITCSGDKLGNKYVCWYQQKPGQSPVLVIFQDSRRPSGIPERFSGSNSGNTATLTISGTQAMDEADYYCQAWDTSTVIFGGGTKLTVL
notes: lambda; also called 6.26.4
B6: 9.26.1 (antibody, human IgG4, V domains shown)
VH: QVQLVESGGGVVQPGRSLRLSCAASGFTFNNYGMHWVRQAPGKGLECVAVIWYDGGNKYYADSVKGRFAISRDNSKNTLYLQMNSLRAEDTAVYYCTAVTKLNYYYGMDVWGQGTTVTVS
VL: QSALTQPASVSGSPGQSITISCTGTSSDVGGYNYVSWYQQHPGKAPKLMIYEVSNRPSGVSNRFSGSKSGNTASLTISGLQAEDEADYYCSSYTSSSILVFGGGTKLTVL
notes: lambda; also called 9.26.3
B7: 6.33.1 (antibody, human IgG4, V domains shown)
VH: QVQLVESGGGVVQPGRSLRLSCAASGFTFSVYGMHWVRQAPGKGLEWVAVIWYDGSNKYYADSVKGRFTISRDNSKNTLYLQMNSLRAEDTAVYYCAREKSSGWFFDYWGQGTLVTVSS
VL: B6 VL with G31S, Y34L, N55K, V60I, S91C, T94A, S95G, S96N, L99W
notes: lambda; also called mAb 6.33.1
B8: 9.11.1 (antibody, human IgG4, V domains shown)
VH: B7 VH with S56N, A61V, M83L, K100R, G103S, F105Y
VL: B6 VL with P14S, G31S, Y34L, N55K, S91C, T94A, S95G, S96N, I98N, L99W
notes: lambda; also called 9.11.3
B9: 9.19.1 (antibody, human IgG4, V domains shown)
VH: B6 VH with G114R
VL: B6 VL with L48F
notes: lambda; also called mAb 9.19.1
B10: 9.2.1 (antibody, human IgG4, V domains shown)
VH: B6 VH with K101T, N103Y
VL: B6 VL
notes: lambda
B11: 9.31.1 (antibody, human IgG4, V domains shown)
VH: QVQLVESGGGLVKPGGSLRLSCAASGFTFSDYYMSWIRQAPGKGLEWVSYIRSSGSTIYYADSVKGRFTISRDNAKNSLYLQMNSLRAEDTAVYYCARTPYSGRYHWYFDLWGRGTLVTVS
VL: SYELTQPPSVSVSPGQTARITCSGDALPIKYAYWYQHKSGQAPVLVIYEDSKRPSGIPERFSGSSSGTMATLTISGAQVEDEADYYCYSTDSSGNHRVFGGGTKLTVL
notes: lambda; also called 9.31.3
B12: 8.50.1 (antibody, human IgG4, V domains shown)
VH: QVQLQESGPGLVKPSETLSLTCTVSGGSISSDYWSWIRQPAGKGLEWIGRFYNSGRTNYRPSLKSRITMSVDTSKNQFSLKLSSVTAADTAVYYCARDMYSGRGNWYFDLWGRGTLVTVS
VL: B11 VL with I29K, H37Q, G94D
notes: lambda

Tests used:
[1] = target: T1, Recombinant human IL-1beta (rhIL-1b) (human, UniProt P01584 117-269); assay: cell-based or functional assay
[2] = target: T1, Recombinant human IL-1beta (rhIL-1b); assay: cell-based or functional assay; remark: listed apart in the source
[3] = target: T1, Recombinant human IL-1beta (rhIL-1b); assay: cell-based or functional assay; remark: listed apart in the source
[4] = target: T1, Recombinant human IL-1beta (rhIL-1b); assay: Biacore, Low Resolution screen
[5] = target: T1, Recombinant human IL-1beta (rhIL-1b); assay: Biacore high-res, mAb amine-coupled, 23C
IL-1β R4A mutant = target: T2, IL-1β R4A mutant (human, UniProt P01584 117-269); assay: binding to site-directed IL-1β mutant; X = abrogation of binding
T2 construct: site-directed mutant

IL-1β R11A mutant = target: T3, IL-1β R11A mutant (human, UniProt P01584 117-269); assay: as above
T3 construct: site-directed mutant

[6] = target: T1, Recombinant human IL-1beta (rhIL-1b); assay: Biacore, Medium Resolution; IL-1β in solution; medium-resolution Biacore
[7] = target: T1, Recombinant human IL-1beta (rhIL-1b); assay: Biacore low-res, mAb captured, 25C; IL-1β in solution (118 nM) over captured mAb; low-resolution Biacore, 25 C

Binder | % IL-6 production, supernatant 1:5 dilut. [1] | % IL-6 production, supernatant 1:10 dilut. [1] | % IL-6 production, supernatant 1:20 dilut. [1] | EC50, inhibition of IL-1β-induced IL-6 production in MRC-5 cells [2] | EC50, inhibition of IL-1β-induced IL-8 production in human whole blood [3] | Kd [4] | Kd [5] | koff [5] | kon [5] | binding result (IL-1β R4A mutant) | binding result (IL-1β R11A mutant) | Kd [6] | koff [6] | kon [6] | Kd [7] | koff [7] | kon [7]
B1 | 2% | 3% | 9% | 0.536 nM | 2.29 nM | 0.629 nM | 0.388 nM | 0.000188 s⁻¹ | 485000 M⁻¹ s⁻¹ | no binding | no binding | 0.45 nM | 0.00022 s⁻¹ | 490000 M⁻¹ s⁻¹ | 0.629 nM | 0.00022 s⁻¹ | 350000 M⁻¹ s⁻¹
B2 | 6% | 8% | 23% | 1.59 nM |  | 1.23 nM |  |  |  |  |  | 0.82 nM |  |  | 1.23 nM |  | 
B3 |  |  |  |  |  |  |  |  |  | no binding | no binding |  |  |  | 5 nM |  | 
B4 | 6% | 8% | 18% | 3.15 nM |  | 0.712 nM |  |  |  | no binding | no binding | 0.58 nM | 0.00058 s⁻¹ | 1e+06 M⁻¹ s⁻¹ | 0.712 nM | 0.00042 s⁻¹ | 590000 M⁻¹ s⁻¹
B5 | 9% | 8% | 22% | 0.591 nM |  | 0.478 nM |  |  |  |  | no binding | 0.2 nM | 0.00038 s⁻¹ | 1.9e+06 M⁻¹ s⁻¹ | 0.478 nM | 0.00044 s⁻¹ | 920000 M⁻¹ s⁻¹
B6 | 12% | 27% | 27% | 5.68 nM |  |  |  |  |  |  |  |  |  |  | 0.854 nM | 0.00035 s⁻¹ | 410000 M⁻¹ s⁻¹
B7 | 13% | 22% | 22% | 1.06 nM |  | 0.32 nM | 0.236 nM | 0.000259 s⁻¹ | 1.1e+06 M⁻¹ s⁻¹ |  | no binding | 0.14 nM | 0.00014 s⁻¹ | 970000 M⁻¹ s⁻¹ | 0.32 nM | 0.00016 s⁻¹ | 500000 M⁻¹ s⁻¹
B8 | 4% | 3% | 10% | 2.67 nM |  | 0.29 nM |  |  |  |  | no binding | 0.14 nM | 0.00023 s⁻¹ | 1.6e+06 M⁻¹ s⁻¹ | 0.29 nM | 0.0002 s⁻¹ | 690000 M⁻¹ s⁻¹
B9 | 5% | 10% | 15% | 2.91 nM |  |  | 0.262 nM | 0.00019 s⁻¹ | 727000 M⁻¹ s⁻¹ |  |  | 0.063 nM | 4e-05 s⁻¹ | 640000 M⁻¹ s⁻¹ | 0.268 nM | 0.00015 s⁻¹ | 560000 M⁻¹ s⁻¹
B10 | 4% | 8% | 16% | 5.47 nM |  | 0.747 nM |  |  |  |  | no binding | 0.29 nM | 0.00035 s⁻¹ | 1.2e+06 M⁻¹ s⁻¹ | 0.747 nM | 0.00074 s⁻¹ | 990000 M⁻¹ s⁻¹
B11 | 6% | 23% | 13% | 14.3 nM |  |  |  |  |  |  | no binding |  |  |  | 5.76 nM | 0.0038 s⁻¹ | 660000 M⁻¹ s⁻¹
B12 |  |  |  |  |  |  |  |  |  |  | no binding |  |  |  | 9 nM | 0.027 s⁻¹ | 3e+06 M⁻¹ s⁻¹
